Source: US20030104635A1, “Screening methods” (AVIDEX LIMITED, priority 1999, published 2003)

Columns and labels:
[1] = target: HLA-A2 (prepared as described in Example A1 and tagged with a biotin molecule); assay: SPR (BIAcore 3000), sCD8αα-specific response as a percentage of the initial response
[2] = test system: class I MHC-restricted T cells; settings: cited from earlier work
B7 = settings: read-out: Kd of CD28-B7 interaction; cited from earlier work
[3] = target: tax 11-19 peptide-HLA-A2 complex (biotinylated); assay: SPR (BIAcore 3000), sTCR-specific response over repeated injections after compound mixtures
MHC/peptide complex = settings: cited from earlier work
[4] = target: influenza matrix peptide-HLA-A2 complex (biotinylated) (influenza virus); assay: SPR (BIAcore 3000), sTCR-specific response over repeated injections after compound mixtures

recombinant soluble form of CD8 (sCD8αα) (from UniProt P01732 22-141) (receptor)
loss of signal over the run [1]: 3.6%

soluble, recombinant CD8: soluble, recombinant CD8 derived from the human coreceptor
inhibition of class I MHC-restricted T cells responses [2]: potent inhibitor

CD28: receptor with low affinity interaction with B7
Kd (B7): ~4 µM

A6 soluble T cell receptor (TCR)
loss of signal over the run [3]: 33%

CD8: T cell coreceptor binding class I MHC/peptide complex
off rate from an MHC/peptide complex (MHC/peptide complex): approximately 10 s^−1
Kd (MHC/peptide complex; read-out: Kd of interaction with MHC/peptide complex): ~500 µM

JM22 soluble T cell receptor (TCR)
loss of signal after 10 mixtures [4]: 10.2%
loss of signal over the run [4]: 9.3%
